Measured values as given in article PMC6071955.
“And” between values parts separate entries of the source, which are not always exact repeats. Equal entries are not always repeated. Where two headings read alike, the source gives them in different places.

Experiments:
[1] = biological target: FusC(E83A) mutant, catalytically inactive (Pectobacterium (species and strain of the cloned gene not stated)); assay: ITC; ferredoxin (200 uM) titrated in 10 ul steps, 27 titrations, into the chamber with FusC(E83A) (20 uM); 20 mM HEPES, 50 mM NaCl pH 7.5; MicroCal VP-ITC; 299.15 K (Table 2); parameters from the average of the two best of three reactions
[2] = biological target: FusC(E83A) mutant, catalytically inactive (Pectobacterium (species and strain of the cloned gene not stated)); assay: as above; remark: listed apart in the source

ferredoxin from the plant Arabidopsis thaliana (from UniProt P16972 53-145) (natural protein)
Kd [1]: 1900 nM
Ka [2]: 452000 M⁻¹ and 805000 M⁻¹ and 629000 M⁻¹
Kd [2]: 1240 nM and 1730 nM and 2210 nM
dH [2]: -5.2 kcal/mol and -4.91 kcal/mol and -5.06 kcal/mol
stoichiometry N [2]: 1.12 and 1.06 and 1.09
